# Assay results: article PMC4344507, “Structural and functional characterization of a cell cycle associated HDAC1/2 complex reveals the structural basis for complex assembly and nucleosome targeting” (Nucleic Acids Research, 2015)
# B1: Human DNTTIP1 (56–147) (domain or fragment, UniProt Q9H147 56-147, looked up)
# chain: MTTSFTDPAISMDLLRAVLQPSINEEIQTVFNKYMKFFQKAALNVRDNVGEEVDAEQLIQEACRSCLEQAKLLFSDGEKVIPRLTHELPGIK
# notes: DNTTIP1, human, residues 56-147; Native and selenomethionine substituted protein were both crystallized; six molecules (three dimers) in the asymmetric unit; also called DD; N-terminal dimerization domain; source: E. coli Rosetta-pLysS or B834(DE3), purified (Ni-NTA, Resource Q, Superdex S75)
# Molecular target: the molecule itself
# Test: crystal structure; DNTTIP1 (56–147), hanging drops at 22°C, 100 mM sodium acetate pH 4.6, 14% propan-2-ol; MAD phasing with SeMet protein; P212121
protein,measurement,value
B1,stoichiometry N,2
